# US20110262525A1, “METHODS OF TREATMENT” (SCHERING CORPORATION, priority 2006, published 2011)
# Marks after values point to notes of the source that are not given here.
# B1: LCF/HCA: fully human anti-IGF1R antibody comprising the mature 19D12/15H12 light chain F (LCF) and mature heavy chain A (HCA) (antibody, V domains shown)
# VH: EVQLVQSGGGLVHPGGSLRLSCAASGFTFSSFAMHWVRQAPGKGLEWISVIDTRGATYYADSVKGRFTISRDNAKNSLYLQMNSLRAEDMAVYYCARLGNFYYGMDVWGQGTTVTVSS
# VL: EIVLTQVPDFQSVTPKEKVTITCRASQSIGSSLHWYQQKPDQSPKLLIKYASQSLSGVPSRFSGSGSGTDFTLTINSLEAEDAAAYYCHQSSRLPHTFGGGTKVEIKRT
# Assays:
# [1] = system: KT-14 xenograft (Rhabdoid); experiment: PPTP in vivo xenograft KT-14; design: key to EFS activity notation (high, intermediate, indeterminate): high (!); intermediate (#); indeterminate (^); settings: KT-14 (Rhabdoid) xenograft, 0.5 mg per mouse ip twice weekly for four weeks
# Description: (§1) The PPTP includes a molecularly characterized in vitro panel of cell lines (n=27) and in vivo panel of xenografts (n=61) representing most of the common types of childhood solid tumors and childhood ALL (acute lymphoblastic leukemia). LCF/HCA anti-IGF1R antibody was tested against the PPTP in vitro panel at concentrations ranging from 0.01 nM to 100 nM; and was tested against the PPTP in vivo panel at a dose of 0.5 mg per mouse administered twice weekly for four weeks via intraperitoneal injection. Three measures of antitumor activity were used: 1) response criteria modeled after the clinical setting; 2) treated-to-control (T/C) tumor volume at day 21; and 3) a time to event (4-fold increase in tumor volume) measure based on the median EFS of treated and control lines (intermediate activity required EFS (event-free survival) T/C>2, and high activity additionally required a net reduction in median tumor volume at the end of the experiment).
# (§2) Stage 1 testing involved testing an agent across the entire PPTP panel of childhood cancer xenograft lines at its maximum tolerated dose (MTD) or at a dose selected based on PK/PD (pharmacokinetic/pharmacodynamic) studies using adult preclinical models.
# (§3) In vivo solid tumor testing: For each xenograft line, 10 mice bearing subcutaneous (SC) tumors initiated treatment when the tumors were between 0.2-0.5 cm^3 in volume. Two perpendicular tumor diameters were measured at once weekly intervals with digital vernier calipers. Assuming tumors to be spherical, volumes were calculated from the formula (π/6)×d3, where d represented the mean diameter.
# (§4) Drug: LCF/HCA was dissolved in 20mM sodium acetate pH 5 buffer containing 150 mM sodium chloride, and administered intraperitoneally twice weekly for 4 consecutive weeks at a dose of 0.5 mg per animal. The antibody was provided to each testing site in coded vials for blinded testing according the PPTP's standard operating procedures.
# (§5) Median Group Response: Each individual mouse in each treatment group was assigned a response score (see Tables above) and a median score for the treatment group was calculated and then each treatment group was assigned an overall response according to the table below.
# (§6) Statistical Methods: Event-free survival (EFS) distributions of each treatment group were compared to the EFS distribution of the respective control group using the exact log rank test. P-values were 2-sided & were not adjusted for multiple comparisons given the exploratory nature of this study. P-values<0.05 were considered to be significant.
# TC-71 xenograft (Ewings) = experiment: PPTP in vivo xenograft TC-71; settings: TC-71 (Ewings) xenograft, 0.5 mg per mouse ip twice weekly for four weeks
# Description: as §1, §2, §3
# (§7) Drug: LCF/HCA was dissolved in 20mM sodium acetate pH 5 buffer containing 150 mM sodium chloride, and administered intraperitoneally twice weekly for 4 consecutive weeks at a dose of 0.5 mg per animal. […]
# (§8) Median Group Response: Each individual mouse in each treatment group was assigned a response score (see Tables above) and a median score for the treatment group was calculated and then each treatment group was assigned an overall response according to the table below. […]
# [2] = system: CHLA258 xenograft (Ewings); experiment: PPTP in vivo xenograft CHLA258; design: key to EFS activity notation (high, intermediate, indeterminate): high (!); intermediate (#); indeterminate (^)
# Description: as §1, §2, §3, §4, §5, §6
# [3] = system: Rh41 xenograft (ALV Rhabdomyosarcoma); experiment: PPTP in vivo xenograft Rh41
# Excerpt: The PPTP includes a molecularly characterized in vitro panel of cell lines (n=27) and in vivo panel of xenografts (n=61) representing most of the common types of childhood solid tumors and childhood ALL (acute lymphoblastic leukemia).
# as §2, §3
# The antibody was provided to each testing site in coded vials for blinded testing according the PPTP's standard operating procedures.
# as §5, §6
# [4] = system: BT-46 xenograft (Medulloblastoma); experiment: PPTP in vivo xenograft BT-46; settings: BT-46 (Medulloblastoma) xenograft, 0.5 mg per mouse ip twice weekly for four weeks
# Description: as §1, §2, §3, §7, §8
# [5] = system: BT-50 xenograft (Medulloblastoma); experiment: PPTP in vivo xenograft BT-50; settings: BT-50 (Medulloblastoma) xenograft, 0.5 mg per mouse ip twice weekly for four weeks
# Description: as §1, §2, §3, §7, §8
# [6] = system: BT-44 xenograft (Ependymoma); experiment: PPTP in vivo xenograft BT-44; design: key to EFS activity notation (high, intermediate, indeterminate): high (!); intermediate (#); indeterminate (^); settings: BT-44 (Ependymoma) xenograft, 0.5 mg per mouse ip twice weekly for four weeks
# Description: as §1, §2, §3, §4, §5, §6
# [7] = system: BT-39 xenograft (Glioblastoma); experiment: PPTP in vivo xenograft BT-39; settings: BT-39 (Glioblastoma) xenograft, 0.5 mg per mouse ip twice weekly for four weeks
# Description: as §1, §2, §3, §7, §8
# [8] = system: OS-2 xenograft (Osteosarcoma); experiment: PPTP in vivo xenograft OS-2; design: key to EFS activity notation (high, intermediate, indeterminate): high (!); intermediate (#); indeterminate (^); settings: OS-2 (Osteosarcoma) xenograft, 0.5 mg per mouse ip twice weekly for four weeks
# Description: as §1, §2, §3, §4, §5, §6
# [9] = system: OS-17 xenograft (Osteosarcoma); experiment: PPTP in vivo xenograft OS-17; settings: OS-17 (Osteosarcoma) xenograft, 0.5 mg per mouse ip twice weekly for four weeks
# Description: as §1, §2, §3, §4, §5, §6
# [10] = system: ALL-3 xenograft (ALL B-precursor); experiment: PPTP in vivo leukemia xenograft ALL-3; settings: ALL-3 (ALL B-precursor) xenograft; 0.5 mg per mouse ip twice weekly for four weeks
# Description: (§9) The PPTP includes a molecularly characterized in vitro panel of cell lines (n=27) and in vivo panel of xenografts (n=61) representing most of the common types of childhood solid tumors and childhood ALL (acute lymphoblastic leukemia). LCF/HCA anti-IGF1R antibody was tested against the PPTP in vitro panel at concentrations ranging from 0.01 nM to 100 nM; and was tested against the PPTP in vivo panel at a dose of 0.5 mg per mouse administered twice weekly for four weeks via intraperitoneal injection. […]
# (§10) In vivo acute lymphoblastic leukemia testing: For each xenograft line, 8 mice were inoculated with 3-5×10^6 mononuclear cells purified from the spleens of secondary recipient mice. Engraftment was monitored weekly by flow cytometry, and treatment was initiated when the proportion of human CD45+ cells in the peripheral blood reached 1%. The proportion of human CD45+ cells in the peripheral blood was monitored weekly throughout the course of treatment. […]
# as §8
# [11] = system: ALL-4 xenograft (ALL B-precursor); experiment: PPTP in vivo leukemia xenograft ALL-4; settings: ALL-4 (ALL B-precursor) xenograft; 0.5 mg per mouse ip twice weekly for four weeks
# Description: as §9, §10, §8
# [12] = system: ALL-16 xenograft (ALL T-cell); experiment: PPTP in vivo leukemia xenograft ALL-16; settings: ALL-16 (ALL T-cell) xenograft; 0.5 mg per mouse ip twice weekly for four weeks
# Description: as §9, §10, §8
# [13] = 0.5 mg per mouse ip twice weekly for four weeks
# [14] = day 21, 0.5 mg per mouse ip twice weekly for four weeks
molecule,measurement,setting,value
B1,EFS T/C,[1],> 3.3
same,"EFS activity notation (high, intermediate, indeterminate)",[1],#
same,Median Final RTV,[1],1.6#
same,Overall Group Response,[1],PD2 (1 < MS ≦ 3)
same,Tumor Volume T/C,[1]; day 21,0.6
same,EFS T/C,TC-71 xenograft (Ewings),1.2
same,Median Final RTV,TC-71 xenograft (Ewings),>4
same,Tumor Volume T/C,TC-71 xenograft (Ewings); day 21,0.88
same,EFS T/C,[2]; [13],4.2
same,"EFS activity notation (high, intermediate, indeterminate)",[2]; [13],#
same,Median Final RTV,[2]; [13],>4#
same,Overall Group Response,[2]; [13],PD2 (1 < MS ≦ 3)
same,Tumor Volume T/C,[2]; [14],0.29
same,EFS T/C,[3]; [13],1.1
same,Median Final RTV,[3]; [13],>4
same,Tumor Volume T/C,[3]; [14],0.65
same,EFS T/C,[4],1.2
same,Median Final RTV,[4],>4
same,Tumor Volume T/C,[4]; day 21,0.69
same,Median Final RTV,[5],1.4
same,Overall Group Response,[5],PD2 (1 < MS ≦ 3)
same,Tumor Volume T/C,[5]; day 21,0.94
same,EFS T/C,[6],2.6
same,"EFS activity notation (high, intermediate, indeterminate)",[6],#
same,Median Final RTV,[6],>4#
same,Overall Group Response,[6],PD2 (1 < MS ≦ 3)
same,Tumor Volume T/C,[6]; day 21,0.66
same,EFS T/C,[7],1.1
same,Median Final RTV,[7],>4
same,Tumor Volume T/C,[7]; day 21,0.87
same,EFS T/C,[8],2.3
same,"EFS activity notation (high, intermediate, indeterminate)",[8],#
same,Median Final RTV,[8],>4#
same,Overall Group Response,[8],PD2 (1 < MS ≦ 3)
same,Tumor Volume T/C,[8]; day 21,0.5
same,EFS T/C,[9],2
same,Median Final RTV,[9],>4
same,Overall Group Response,[9],PD2 (1 < MS ≦ 3)
same,Tumor Volume T/C,[9]; day 21,0.55
same,EFS T/C,[10],0.4
same,Median Final RTV,[10],>25
same,EFS T/C,[11],0.8
same,Median Final RTV,[11],>25
same,EFS T/C,[12],1
same,Median Final RTV,[12],>25
